Test results: publication PMC9841416

Biological target: NTH-RNase E wild type (Escherichia coli (K12, P21513-1 in alignment)) (UniProt P21513)
Experiment: competition
Conditions: competitor of 7.5 nM BR15 quadruplex, 20 nM NTH, 25 mM bis-Tris propane pH 8.3, 100 mM KCl, 15 mM CaCl2, 0.1% (v/v) Triton X-100, 1 mM DTT, 20% (v/v) glycerol, 37 C 20 min, 1% agarose gel in 1x TBE

Substance | IC50 [nM] | IC50 (does not compete effectively) [nM]
glnW-metU segment | 229 | –
glnW-tRNA (no flanking single-stranded regions) | – | > 2500
metU-tRNA with 5' and 3' single-stranded regions | 147 | –
